Publication PMC2848857, “The Crystal Structure of PPIL1 Bound to Cyclosporine A Suggests a Binding Mode for a Linear Epitope of the SKIP Protein” (PLoS ONE, 2010)

Biological target: T1, GST-PPIL1 fusion protein (human, UniProt Q9Y3C6 1-166)
T1 construct: Peptidyl-prolyl isomerase like 1 (PPIL1), human, full length, cloned from a human cDNA library into pGEX-6P1; also called Recombinant GST-PPIL1; Peptidyl-prolyl isomerase like 1; source: E. coli Rosetta 2, glutathione-sepharose
T1 sequence (looked up): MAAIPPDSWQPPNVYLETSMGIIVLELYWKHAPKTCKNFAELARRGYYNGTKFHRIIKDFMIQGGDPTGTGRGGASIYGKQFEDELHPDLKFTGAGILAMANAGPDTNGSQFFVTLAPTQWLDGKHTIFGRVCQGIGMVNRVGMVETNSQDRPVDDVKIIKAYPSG
Test: peptide or protein array; SKIP 20-mer peptides on cellulose membrane; GST-PPIL1 or GST alone at 40 µg/ml in blocking buffer (5% milk powder, 5% saccharose in TBS, pH 8.0), overnight at 4°C; detected with anti-GST antibody and chemiluminescence
Settings: both partners purified

binding result: binds
B1: peptide A12 of the SKIP peptide array (peptide, UniProt Q13573 60-79, looked up)
peptide: DGGAFPEIHVAQYPLDMGRK
notes: The limits fit the twelfth peptide of a scan that starts at residue 49 with a one amino acid offset; source: synthetic peptide, spotted on cellulose membrane
